Like-named read-outs stand apart in the source and are kept apart here. One block for each substance: values may come before it.
What was measured:
[1] = molecular target: T1, neonatal Fc receptor (FcRn), FCGRT + beta2-microglobulin heterodimer (UniProt P55899+P61769); test: biolayer interferometry (Octet Red384), dissociation after a pH switch; conditions: pH 7.2; 150 mM NaCl; association in 50 mM phosphate pH 6; dissociation in 50 mM phosphate pH 7.2 (Methods; Results and Discussion say pH 7.4)
[2] = molecular target: human FcγRI with a C-terminal AVI-tag and C-terminal His-tag (Sino Biological) (human) (UniProt P12314); test: SPR; Biacore T200, single-cycle kinetics; biotinylated FcγRI captured on a CAPchip, IgG1 injected at 0.06-5 nM; HBS-EP+; 37 °C; 1:1 kinetic model; KD observed
Sequence of UniProt P12314 (P12314 16-292): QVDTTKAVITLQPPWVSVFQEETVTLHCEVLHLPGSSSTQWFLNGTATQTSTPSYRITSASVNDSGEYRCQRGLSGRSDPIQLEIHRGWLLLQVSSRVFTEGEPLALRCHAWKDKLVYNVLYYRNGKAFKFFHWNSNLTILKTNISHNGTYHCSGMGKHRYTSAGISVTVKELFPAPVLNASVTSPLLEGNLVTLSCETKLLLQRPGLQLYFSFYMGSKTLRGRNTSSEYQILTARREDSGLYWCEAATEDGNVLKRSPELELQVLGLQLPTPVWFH

[3] = molecular target: human FcRn (human FCGRT & B2M heterodimer) (human) (UniProt P55899); test: BLI; Octet Red384, multicycle kinetics; FcRn amine-coupled to AR2G tips, IgG1 2.5-80 nM; association and dissociation at pH 6 (50 mM phosphate, 150 mM NaCl, 0.1% Tween 20); heterogeneous ligand model; KD observed
[4] = molecular target: human FcRn (human FCGRT & B2M heterodimer) (human) (UniProt P55899); test: BLI; Octet Red384; FcRn amine-coupled to AR2G tips; 320 nM IgG1 associated at pH 6 and dissociated at pH 7.2; fraction bound 5 s after the start of dissociation (response at 0 s = 100%)
[5] = molecular target: recombinant human FcγRIIIa (human) (UniProt P08637); test: SPR; SPR imaging (IBIS MX96); biotinylated Fcγ receptors on a streptavidin G-Strep SensEye sensor, IgG injected; HBS pH 7.2/0.05% Tween-80; binding level at equilibrium (2 min) relative to a reference sample set to 100%; 50 and 250 μg/mL IgG1 (FcγRIIa, FcγRIIIa) or 250 and 1000 μg/mL (FcγRIIb, FcγRIIIb); corrected for decay of the surface
Sequence of UniProt P08637 (P08637 17-254): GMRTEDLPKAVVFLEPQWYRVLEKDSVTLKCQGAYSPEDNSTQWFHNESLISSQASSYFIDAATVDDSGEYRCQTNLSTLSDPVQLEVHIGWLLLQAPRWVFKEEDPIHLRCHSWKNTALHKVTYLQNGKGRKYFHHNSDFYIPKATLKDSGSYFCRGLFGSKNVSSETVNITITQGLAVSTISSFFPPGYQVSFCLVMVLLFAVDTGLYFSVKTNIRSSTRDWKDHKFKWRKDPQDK

[6] = molecular target: recombinant human FcγRIIIb (human) (UniProt O75015); test: as above
Sequence of UniProt O75015 (O75015 17-200): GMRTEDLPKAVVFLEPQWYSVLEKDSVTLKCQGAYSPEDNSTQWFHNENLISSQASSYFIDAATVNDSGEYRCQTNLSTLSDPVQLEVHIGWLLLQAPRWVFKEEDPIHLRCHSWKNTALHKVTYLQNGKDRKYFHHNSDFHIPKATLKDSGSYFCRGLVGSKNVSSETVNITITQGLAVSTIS

[7] = molecular target: recombinant human FcγRIIa (human) (UniProt P12318); test: as above
Sequence of UniProt P12318 (P12318 34-317): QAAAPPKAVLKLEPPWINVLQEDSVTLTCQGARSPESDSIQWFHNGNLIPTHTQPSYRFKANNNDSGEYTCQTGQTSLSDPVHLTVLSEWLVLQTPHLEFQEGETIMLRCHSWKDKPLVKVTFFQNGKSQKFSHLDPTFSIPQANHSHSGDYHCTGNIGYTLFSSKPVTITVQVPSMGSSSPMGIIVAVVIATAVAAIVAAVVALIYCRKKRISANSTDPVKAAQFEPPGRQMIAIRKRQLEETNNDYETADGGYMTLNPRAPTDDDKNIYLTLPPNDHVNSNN

[8] = molecular target: recombinant human FcγRIIb (human) (UniProt P31994); test: as above
Sequence of UniProt P31994 (P31994 43-310): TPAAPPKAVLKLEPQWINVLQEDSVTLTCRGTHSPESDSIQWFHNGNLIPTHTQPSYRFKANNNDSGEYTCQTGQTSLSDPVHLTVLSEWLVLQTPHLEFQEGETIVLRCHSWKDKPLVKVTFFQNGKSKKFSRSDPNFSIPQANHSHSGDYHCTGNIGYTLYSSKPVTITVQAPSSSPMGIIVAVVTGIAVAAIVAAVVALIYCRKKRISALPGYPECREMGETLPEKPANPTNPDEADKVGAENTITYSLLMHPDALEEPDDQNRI

[9] = molecular target: human FcγRI with a C-terminal AVI-tag and C-terminal His-tag (Sino Biological) (human) (UniProt P12314); test: SPR; Biacore T200, single-cycle kinetics; biotinylated FcγRI captured on a CAPchip, IgG1 injected at 0.06-5 nM; HBS-EP+; 37 °C; 1:1 kinetic model; KD observed; remark: listed apart in the source
[10] = molecular target: T1, neonatal Fc receptor (FcRn), FCGRT + beta2-microglobulin heterodimer; test: biolayer interferometry (Octet Red384), dissociation after a pH switch; conditions: pH 7.2; 150 mM NaCl; association in 50 mM phosphate pH 6; dissociation in 50 mM phosphate pH 7.2 (Methods; Results and Discussion say pH 7.4); remark: listed apart in the source
[11] = molecular target: human FcRn (human FCGRT & B2M heterodimer) (human) (UniProt P55899); test: BLI; as a4 (FcRn on AR2G tips, pH 6), but fitted with a 1:1 binding model; not corrected for the molecular weight of the aggregates; apparent
[12] = molecular target: human FcRn (human FCGRT & B2M heterodimer) (human) (UniProt P55899); test: BLI; Octet Red384, multicycle kinetics; FcRn amine-coupled to AR2G tips, IgG1 2.5-80 nM; association and dissociation at pH 6 (50 mM phosphate, 150 mM NaCl, 0.1% Tween 20); heterogeneous ligand model; KD observed; remark: listed apart in the source
[13] = stress condition 40 °C‐1000 r.p.m._24 h
[14] = stress condition 40 °C‐1000 r.p.m._48 h

- Fraction bound (5 s after start of dissociation at neutral pH) [1]: 8.4%
Substance: human IgG1, 1 freeze/thaw cycle

- Kd [2]: 0.43 nM
- Kd [3]: 3.7 nM
Substance: human IgG1 with 8% afucosylation (antibody)

- Kd [2, 13]: 0.53 nM
- Kd [2, 14]: 0.45 nM
- fraction bound at neutral pH [4, 13]: 7.9%
- fraction bound at neutral pH [4, 14]: 7.3%
- Kd [3, 13]: 5.5 nM
- Kd [3, 14]: 5 nM
- Kd ([3]; stress condition 40 °C‐1000 r.p.m._72 h): 5.4 nM
Substance: human IgG1 after thermal/shake stress at 40 °C and 1000 r.p.m. (antibody)

- Fraction bound (5 s after start of dissociation at neutral pH) [1]: 7.4%
Substance: human IgG1, 10 freeze/thaw cycles

- Fraction bound (5 s after start of dissociation at neutral pH) [1]: 15.7%
Substance: human IgG1, AF 70 (70% afucosylated)

- Fraction bound (5 s after start of dissociation at neutral pH) [1]: 7.9%
Substance: human IgG1, pH7.2_96 h control

- Kd ([2]; stress condition H2O2_0.1%): 0.93 nM
- Kd ([2]; stress condition H2O2_0.25%): 0.53 nM
- Kd ([2]; stress condition H2O2_0.5%): 0.42 nM
- fraction bound at neutral pH [4]: 6.4%
- Kd [3]: 6.2 nM
Substance: human IgG1 after accelerated methionine oxidation with H2O2 (antibody)

- Fraction bound (5 s after start of dissociation at neutral pH) [1]: 4.1%
Substance: human IgG1, DG 100 (fully deglycosylated with PNGase F)

- fraction bound at neutral pH ([4]; stress condition F‐T 1): 8.4%
- fraction bound at neutral pH ([4]; stress condition F‐T 5): 8.1%
- fraction bound at neutral pH ([4]; stress condition F‐T 10): 7.4%
- Kd ([3]; stress condition F‐T 1): 5.7 nM
- Kd ([3]; stress condition F‐T 10): 5.2 nM
- relative binding (% of reference) ([5]; stress condition F‐T 1): 80.1%
- relative binding (% of reference) ([5]; stress condition F‐T 5): 103%
- relative binding (% of reference) ([5]; stress condition F‐T 10): 98.7%
- relative binding (% of reference) ([6]; stress condition F‐T 1): 106%
- relative binding (% of reference) ([6]; stress condition F‐T 5): 105%
- relative binding (% of reference) ([6]; stress condition F‐T 10): 102%
- relative binding (% of reference) ([7]; stress condition F‐T 1): 102%
- relative binding (% of reference) ([7]; stress condition F‐T 5): 92.3%
- relative binding (% of reference) ([7]; stress condition F‐T 10): 85.9%
- relative binding (% of reference) ([8]; stress condition F‐T 1): 102%
- relative binding (% of reference) ([8]; stress condition F‐T 5): 97.2%
- relative binding (% of reference) ([8]; stress condition F‐T 10): 95.9%
Substance: human IgG1 after repeated freeze/thaw cycles (antibody)

- maximum response [2]: 5 RU
- Kd [3]: 6.3 nM
Substance: fully deglycosylated human IgG1 (PNGase F) (antibody)

- Fraction bound (5 s after start of dissociation at neutral pH) [1]: 14.3%
Substance: human IgG1, AF 3 (3% afucosylated)

- relative binding (% of reference) [5]: 72.7%
- relative binding (% of reference) [6]: 127%
- relative binding (% of reference) [7]: 62.5%
- relative binding (% of reference) [8]: 93.4%
Substance: human IgG1 heated to 70 °C for 15 min at 300 r.p.m. (antibody)

- Fraction bound (5 s after start of dissociation at neutral pH) [1]: 7.7%
Substance: human IgG1, H2O2_0.5% oxidised

- Kd [9]: 0.08 nM
- fraction bound at neutral pH [4]: 17.3%
Substance: covalent dimer fraction of IgG1 (DSS cross-linked, preparative SEC) (antibody)

- Kd ([2]; stress condition pH7.2_48 h): 0.59 nM
- Kd ([2]; stress condition pH7.2_72 h): 0.48 nM
- Kd ([2]; stress condition pH7.2_96 h): 0.58 nM
- fraction bound at neutral pH [4]: 7.6%
- Kd ([3]; stress condition pH7.2_48 h): 5.5 nM
- Kd ([3]; stress condition pH7.2_72 h): 6.1 nM
- Kd ([3]; stress condition pH7.2_96 h): 5.6 nM
Substance: human IgG1 kept at 40 °C in HBS buffer pH 7.2 (control of the deamidation stress) (antibody)

- Kd [2]: 0.52 nM
- Kd [3]: 4.9 nM
Substance: human IgG1, 0% deglycosylated control of the deglycosylation (antibody)

- Fraction bound (5 s after start of dissociation at neutral pH) [10]: 8.9%
Substance: human IgG1, monomer fraction of the DSS cross-linking preparation

- Fraction bound (5 s after start of dissociation at neutral pH) [1]: 8.5%
Substance: human IgG1, DG 0 (glycosylated control of the deglycosylation experiment)

- Kd [2]: 0.33 nM
- fraction bound at neutral pH [4]: 15.7%
- Kd [3]: 3.8 nM
- relative binding (% of reference) [5]: 159%
- relative binding (% of reference) [6]: 186%
- relative binding (% of reference) [7]: 104%
- relative binding (% of reference) [8]: 110%
Substance: human IgG1 with 70% afucosylation (antibody)

- Fraction bound (5 s after start of dissociation at neutral pH) [1]: 6.4%
Substance: human IgG1, H2O2_0.25% oxidised

- Kd [11]: 3 nM
- Kd [9]: 0.07 nM
- fraction bound at neutral pH [4]: 17.7%
Substance: covalent oligomer fraction of IgG1 (DSS cross-linked, preparative SEC) (antibody)

- Fraction bound (5 s after start of dissociation at neutral pH) [1]: 8.1%
Substance: human IgG1, 5 freeze/thaw cycles

- Kd [2]: 0.44 nM
- fraction bound at neutral pH [4]: 14.3%
- Kd [3]: 3.7 nM
- relative binding (% of reference) [5]: 79.7%
- relative binding (% of reference) [6]: 83.9%
- relative binding (% of reference) [7]: 102%
- relative binding (% of reference) [8]: 90.6%
Substance: human IgG1 with 3% afucosylation (antibody)

- Fraction bound (5 s after start of dissociation at neutral pH) [1]: 6.5%
Substance: human IgG1, deamidated pH8.0_72 h

- Fraction bound (5 s after start of dissociation at neutral pH) [1]: 7.6%
Substance: human IgG1, pH7.2_48 h control

- relative binding (% of reference) [5]: 389%
- relative binding (% of reference) [6]: > 1000%
- relative binding (% of reference) [7]: > 1000%
- relative binding (% of reference) [8]: > 1000%
Substance: human IgG1 heated to 75 °C for 15 min at 300 r.p.m. (antibody)

- Fraction bound (5 s after start of dissociation at neutral pH) [1]: 8.6%
Substance: human IgG1, 40 °C-1000 r.p.m._72 h

- Kd [9]: 0.52 nM
- fraction bound at neutral pH [4]: 8.9%
- Kd [12]: 7 nM
Substance: monomer fraction of the DSS-treated IgG1 sample (preparative SEC) (antibody)

- fraction bound at neutral pH ([4]; stress condition pH8.0_48 h): 7.8%
- fraction bound at neutral pH ([4]; stress condition pH8.0_72 h): 6.5%
Substance: human IgG1 after accelerated asparagine deamidation at pH 8 (antibody)

- Fraction bound (5 s after start of dissociation at neutral pH) [1]: 7.8%
Substance: human IgG1, deamidated pH8.0_48 h

- Fraction bound (5 s after start of dissociation at neutral pH) [1]: 8.3%
Substance: human IgG1, pH7.2_72 h control

- Fraction bound (5 s after start of dissociation at neutral pH) [1]: 7.9%
Substance: human IgG1, 40 °C-1000 r.p.m._24 h

- Fraction bound (5 s after start of dissociation at neutral pH) [1]: 8.3%
- Fraction bound (5 s after start of dissociation at neutral pH) [10]: 7.5%
Substance: human IgG1 monoclonal antibody, reference (unstressed)

- Fraction bound (5 s after start of dissociation at neutral pH) [1]: 7.3%
Substance: human IgG1, 40 °C-1000 r.p.m._48 h

- Fraction bound (5 s after start of dissociation at neutral pH) [1]: 10%
Substance: human IgG1, deamidated pH8.0_96 h

- Kd [2]: 0.56 nM
- maximum response [2]: 80 RU
- Kd [9]: 0.66 nM
- fraction bound at neutral pH [4]: 7.5%
- Kd [3]: 5.7 nM
- Kd [12]: 6.3 nM
Substance: human IgG1 monoclonal antibody, reference sample
